In patent publication US20020165128A1, “Compositions and methods for proteolytically inactivating infectious agents using lactoferrin and related molecules” (priority 1998, published 2002):
Substitutions are numbered along the chain they refer to. Where two headings read alike, the source gives them in different places.

T1: H. influenzae Hap adhesin (Haemophilus influenzae, UniProt P45387, S243A)
T1 construct: expressed in transfected cells; host or cells: H. influenzae strain DB117 carrying pJS106
T1 sequence (P45387 26-1394 S243A): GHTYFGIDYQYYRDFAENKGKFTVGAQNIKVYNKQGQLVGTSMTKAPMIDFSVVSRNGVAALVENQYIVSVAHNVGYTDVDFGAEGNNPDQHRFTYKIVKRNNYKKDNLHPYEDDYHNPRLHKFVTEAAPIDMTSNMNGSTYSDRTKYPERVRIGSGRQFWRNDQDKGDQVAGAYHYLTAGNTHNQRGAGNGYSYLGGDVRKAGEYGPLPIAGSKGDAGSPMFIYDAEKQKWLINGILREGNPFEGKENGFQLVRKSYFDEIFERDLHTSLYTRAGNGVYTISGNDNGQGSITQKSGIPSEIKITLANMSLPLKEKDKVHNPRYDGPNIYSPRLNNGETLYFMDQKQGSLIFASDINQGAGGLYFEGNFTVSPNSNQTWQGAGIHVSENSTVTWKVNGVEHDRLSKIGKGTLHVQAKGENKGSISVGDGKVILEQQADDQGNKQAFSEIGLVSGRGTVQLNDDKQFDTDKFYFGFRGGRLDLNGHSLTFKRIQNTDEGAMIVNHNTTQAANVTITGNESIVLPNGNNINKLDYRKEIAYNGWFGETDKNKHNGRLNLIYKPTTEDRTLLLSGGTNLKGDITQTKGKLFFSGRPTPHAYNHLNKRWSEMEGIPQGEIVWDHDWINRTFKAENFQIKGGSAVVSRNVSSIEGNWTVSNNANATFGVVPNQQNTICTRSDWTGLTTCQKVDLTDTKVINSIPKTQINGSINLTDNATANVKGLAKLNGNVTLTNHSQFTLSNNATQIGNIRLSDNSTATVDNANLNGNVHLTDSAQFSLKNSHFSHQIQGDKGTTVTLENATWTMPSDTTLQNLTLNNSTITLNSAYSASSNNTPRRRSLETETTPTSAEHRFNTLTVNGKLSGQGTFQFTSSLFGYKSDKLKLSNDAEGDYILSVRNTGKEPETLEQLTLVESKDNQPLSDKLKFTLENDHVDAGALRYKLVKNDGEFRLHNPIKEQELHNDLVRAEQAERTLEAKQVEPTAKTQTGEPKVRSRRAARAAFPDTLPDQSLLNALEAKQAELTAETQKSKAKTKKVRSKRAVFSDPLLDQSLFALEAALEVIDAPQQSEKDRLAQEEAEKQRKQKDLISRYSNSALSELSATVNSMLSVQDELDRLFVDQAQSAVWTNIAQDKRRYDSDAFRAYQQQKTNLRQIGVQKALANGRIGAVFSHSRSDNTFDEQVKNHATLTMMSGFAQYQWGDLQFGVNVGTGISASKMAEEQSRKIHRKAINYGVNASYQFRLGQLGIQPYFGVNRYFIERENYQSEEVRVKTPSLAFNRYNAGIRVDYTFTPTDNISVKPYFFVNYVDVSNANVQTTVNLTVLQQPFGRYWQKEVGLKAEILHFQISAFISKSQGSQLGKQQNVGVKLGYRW

T2: H. influenzae Hap adhesin (Haemophilus influenzae, UniProt P45387)
T2 construct: expressed in transfected cells; host or cells: H. influenzae strain DB117 carrying pJS106
T2 sequence (P45387 26-1394): T1 sequence (P45387 26-1394 S243A) with A218S

B1: DMV Lactoferrin: commercially available bovine milk lactoferrin powder, DMV International Nutritionals, Lot 10022340 (protein, UniProt P24627 20-708, looked up)
Lactotransferrin: APRKNVRWCTISQPEWFKCRRWQWRMKKLGAPSITCVRRAFALECIRAIAEKKADAVTLDGGMVFEAGRDPYKLRPVAAEIYGTKESPQTHYYAVAVVKKGSNFQLDQLQGRKSCHTGLGRSAGWIIPMGILRPYLSWTESLEPLQGAVAKFFSASCVPCIDRQAYPNLCQLCKGEGENQCACSSREPYFGYSGAFKCLQDGAGDVAFVKETTVFENLPEKADRDQYELLCLNNSRAPVDAFKECHLAQVPSHAVVARSVDGKEDLIWKLLSKAQEKFGKNKSRSFQLFGSPPGQRDLLFKDSALGFLRIPSKVDSALYLGSRYLTTLKNLRETAEEVKARYTRVVWCAVGPEEQKKCQQWSQQSGQNVTCATASTTDDCIVLVLKGEADALNLDGGYIYTAGKCGLVPVLAENRKSSKHSSLDCVLRPTEGYLAVAVVKKANEGLTWNSLKDKKSCHTAVDRTAGWNIPMGLIVNQTGSCAFDEFFSQSCAPGADPKSRLCALCAGDDQGLDKCVPNSKEKYYGYTGAFRCLAEDVGDVAFVKNDTVWENTNGESTADWAKNLNREDFRLLCLDGTRKPVTEAQSCHLAVAPNHAVVSRSDRAAHVKQVLLHQQALFGKNGKNCPDKFCLFKSETKNLLFNDNTECLAKLGGRPTYEEYLGTEYVTAIANLKKCSTSPLLEACAFLTR
B2: human milk lactoferrin: lactoferrin purified from human milk whey using anion exchange and molecular sieve chromatography (protein, UniProt P02788 20-710, looked up)
Lactotransferrin: GRRRSVQWCAVSQPEATKCFQWQRNMRKVRGPPVSCIKRDSPIQCIQAIAENRADAVTLDGGFIYEAGLAPYKLRPVAAEVYGTERQPRTHYYAVAVVKKGGSFQLNELQGLKSCHTGLRRTAGWNVPIGTLRPFLNWTGPPEPIEAAVARFFSASCVPGADKGQFPNLCRLCAGTGENKCAFSSQEPYFSYSGAFKCLRDGAGDVAFIRESTVFEDLSDEAERDEYELLCPDNTRKPVDKFKDCHLARVPSHAVVARSVNGKEDAIWNLLRQAQEKFGKDKSPKFQLFGSPSGQKDLLFKDSAIGFSRVPPRIDSGLYLGSGYFTAIQNLRKSEEEVAARRARVVWCAVGEQELRKCNQWSGLSEGSVTCSSASTTEDCIALVLKGEADAMSLDGGYVYTAGKCGLVPVLAENYKSQQSSDPDPNCVDRPVEGYLAVAVVRRSDTSLTWNSVKGKKSCHTAVDRTAGWNIPMGLLFNQTGSCKFDEYFSQSCAPGSDPRSNLCALCIGDEQGENKCVPNSNERYYGYTGAFRCLAENAGDVAFVKDVTVLQNTDGNNNEAWAKDLKLADFALLCLDGKRKPVTEARSCHLAMAPNHAVVSRMDKVERLKQVLLHQQAKFGRNGSDCPDKFCLFQSETKNLLFNDNTECLARLHGKTTYEKYLGPQYVAGITNLKKCSTSPLLEACEFLRK
B3: A. awamori recombinant lactoferrin: Aspergillus awamori recombinant human lactoferrin provided by Agennix Corporation (protein, UniProt P02788 20-710, looked up)
Lactotransferrin: B2 Lactotransferrin
modifications: expressed in Aspergillus awamori

Columns and labels:
[1] = cited from earlier work
[2] = target: H. influenzae IgA1 protease precursor (Haemophilus influenzae, UniProt P44969, S288V)
H. influenzae IgA1 protease precursor, sequence (P44969 26-1694 S288V): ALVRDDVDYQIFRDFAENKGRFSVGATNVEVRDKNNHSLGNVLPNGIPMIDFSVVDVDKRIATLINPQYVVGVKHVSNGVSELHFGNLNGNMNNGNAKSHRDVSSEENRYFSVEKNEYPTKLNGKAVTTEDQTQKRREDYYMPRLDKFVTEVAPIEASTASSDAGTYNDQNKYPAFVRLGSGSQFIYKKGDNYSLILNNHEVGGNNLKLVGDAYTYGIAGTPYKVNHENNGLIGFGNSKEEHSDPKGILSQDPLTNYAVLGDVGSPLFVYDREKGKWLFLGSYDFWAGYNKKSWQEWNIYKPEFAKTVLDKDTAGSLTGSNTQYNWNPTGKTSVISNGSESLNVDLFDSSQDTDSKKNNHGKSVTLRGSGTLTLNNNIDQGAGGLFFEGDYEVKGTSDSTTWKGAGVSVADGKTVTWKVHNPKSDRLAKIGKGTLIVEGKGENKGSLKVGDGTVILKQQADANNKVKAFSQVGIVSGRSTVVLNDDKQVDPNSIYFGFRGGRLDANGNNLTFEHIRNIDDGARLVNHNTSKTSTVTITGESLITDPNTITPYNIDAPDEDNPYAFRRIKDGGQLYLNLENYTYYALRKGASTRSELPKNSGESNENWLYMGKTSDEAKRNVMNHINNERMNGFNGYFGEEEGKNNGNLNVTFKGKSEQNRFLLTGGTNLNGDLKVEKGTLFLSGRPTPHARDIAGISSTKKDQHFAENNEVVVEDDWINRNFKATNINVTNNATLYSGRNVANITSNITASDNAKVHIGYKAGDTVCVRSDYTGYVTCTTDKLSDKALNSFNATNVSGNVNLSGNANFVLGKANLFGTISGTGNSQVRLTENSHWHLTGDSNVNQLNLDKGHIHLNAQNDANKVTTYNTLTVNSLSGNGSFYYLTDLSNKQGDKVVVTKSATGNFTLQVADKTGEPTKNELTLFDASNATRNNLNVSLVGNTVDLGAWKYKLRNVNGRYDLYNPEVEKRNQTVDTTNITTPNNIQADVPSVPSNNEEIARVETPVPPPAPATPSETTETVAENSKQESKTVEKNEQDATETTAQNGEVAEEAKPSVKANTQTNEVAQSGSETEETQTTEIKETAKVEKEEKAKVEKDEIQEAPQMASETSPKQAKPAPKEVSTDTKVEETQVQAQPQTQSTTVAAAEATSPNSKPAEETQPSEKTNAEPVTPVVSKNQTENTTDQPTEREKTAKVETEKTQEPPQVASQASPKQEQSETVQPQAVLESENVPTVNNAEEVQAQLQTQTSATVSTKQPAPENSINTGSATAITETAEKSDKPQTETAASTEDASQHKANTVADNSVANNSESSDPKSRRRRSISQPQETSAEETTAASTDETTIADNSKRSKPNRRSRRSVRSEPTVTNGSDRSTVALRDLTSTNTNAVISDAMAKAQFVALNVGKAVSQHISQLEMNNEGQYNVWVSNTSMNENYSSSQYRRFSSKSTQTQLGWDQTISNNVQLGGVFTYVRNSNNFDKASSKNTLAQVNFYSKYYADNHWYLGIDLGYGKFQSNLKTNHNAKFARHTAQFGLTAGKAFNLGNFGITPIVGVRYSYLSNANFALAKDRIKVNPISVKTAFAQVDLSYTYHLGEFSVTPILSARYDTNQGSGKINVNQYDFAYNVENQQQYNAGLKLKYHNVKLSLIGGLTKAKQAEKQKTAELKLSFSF
Procedure: The Rd strain was grown in brain heart-infusion broth supplemented with hemin (10 μg/ml) and nicotinamide adenine dinucleotide (2 μg/ml) to mid-log phase, and then harvested by centrifugation.
All samples were collected in sterile beakers; within 6 hours of collection they were centrifuged at 10,000×g for 20 min at 4 C to remove lipids and cells. The resulting whey was stored at −70 C and was prepared for use by thawing slowly, without further modifications. 2×10^9 H. influenzae cells were resuspended in 1 ml of the unmodified human milk whey and incubated at 37 C with gentle mixing. Samples were removed at intervals between 2 minutes and 1 hour. Whole cells and supernatants were examined by Western immunoblot using antisera directed against all domains of the preprotein.
Mid-log phase Rd3-13 bacteria were incubated in milk whey, and aliquots were removed at the times shown.
The antiserum used was anti-Rd3-13, which reacts with IgAp, IgAa, and IgAb.

[3] = target: peptide fragments of IgA1 protease (Haemophilus influenzae, UniProt P44969); conditions: 60 amino acid peptide ending at Arg1397; similar with the 80, 40 and 20 amino acid peptides
peptide fragments of IgA1 protease, sequence (P44969 1338-1397): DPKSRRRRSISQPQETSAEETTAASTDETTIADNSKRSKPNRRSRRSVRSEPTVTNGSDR
Procedure: To further define the site of cleavage of the IgA1 protease precursor protein, N-Iga was resolved on an SDS-PAGE gel, then stained with Coomassie blue and excised. The excised band was subjected to Lys-C digestion, and mass spectrometry was performed. […] Subsequently, these peptides were treated with lactoferrin and then examined the reaction mixtures by mass spectrometry.
Digests involving lactoferrin and synthetic peptides were extracted twice with 50 μL acetonitrile/2% TFA and then dried and resuspended in matrix solution for analysis by MALDI mass spectrometry.

[4] = tested on: H. influenzae Hap adhesin; assay type: cell-based, Haemophilus influenzae
[5] = target: T1, H. influenzae Hap adhesin; assay type: cell-based
[6] = target: T2, H. influenzae Hap adhesin; assay type: cell-based; conditions: DB117 expressing wild-type Hap, 13 μM
[7] = target: T3, 20 amino acid peptide Ala1007-Phe1026 of Hap (Haemophilus influenzae, UniProt P45387); test: Lactoferrin cleavage of synthetic Hap peptide, mass spectrometry; assay type: biochemical
T3 construct: a 20 amino acid peptide corresponding to residues Ala1007-Phe1026 of Hap was synthesized; made in house; host or cells: chemical synthesis (f-moc), Protein Chemistry Laboratory at Tufts University
From the text: Next, a 20 amino acid peptide corresponding to residues Ala1007-Phe1026 of Hap was synthesized and subjected to cleavage by milk lactoferrin.

Molecule	shelf life ([1]; original sealed packaging, stored below 20° C., max 75% relative humidity)	Iron binding: spectrophotometric method at 465 nm (on solids) ([1]; typical analysis) [%]	pH (2%, 20° C.) ([1]; typical analysis)	removal of IgA protease precursor ([2]; Rd3-13, after 15 minutes)	removal of IgA protease precursor ([2]; Rd3-13, after two hours)	cleavage site in IgA1 protease peptides [3]	removal of IgA protease precursor ([2]; Rd3-13, 30 min. incubation, bacterial cell pellet)	proteolysis of Hap ([4]; lowest concentration (87 nM), treatment of cells for 1 hour)	effect on Hap preprotein ([5]; DB117 expressing HapS243A, 13 μM, whole cells)	effect on Hap [6]	cleavage site in Hap peptide [7]	Hap degradation products ([4]; DB117 derivatives, 13 μM)	proteolysis of Hap ([5]; DB117/HapS243A, 430 nM)
B1	at least three years	76	5.7	virtually no precursor was removed	only a trace of the precursor was removed								
B2				a large amount of precursor has been proteolytically removed		cleavage between Arg1382 and Arg1383 and between Arg1383 and Ser1384	small amount of precursor protein remaining	proteolysis detectable but incomplete	loss of the Hap preprotein and generation of a Hap C-terminal fragment	resulted in proteolysis, rather than extraction of Hap	cleavage between Arg1019 and Arg1020 and between Arg1020 and Ala1021		
B3												generated two products	partial proteolysis of Hap
